Results: paper PMC2883074 (Molecular Microbiology, 2010)
Read-outs that look alike come from different tables or passages of the source.

What was measured:
SEC [1] = target: the molecule itself; assay: SEC
crystal structure = target: the molecule itself; assay: crystal structure
SEC [2] = target: the molecule itself; assay: SEC; remark: listed apart in the source

Protein	stoichiometry N (SEC [2])	further results
full-length Helicobacter pylori MinE (natural protein, UniProt O25099 1-77, looked up) MSLFDFFKNKGSAATATDRLKLILAKERTLNLPYMEEMRKEIIAVIQKYTKSSDIHFKTLDSNQSVETIEVEIILPR		stoichiometry N (SEC [1]): 2
Selenomethionine (Se-Met)-labelled HpMinE (natural protein, Helicobacter pylori, UniProt O25099 1-77, looked up, selenomethionine (Se-Met-labelled)) MSLFDFFKNKGSAATATDRLKLILAKERTLNLPYMEEMRKEIIAVIQKYTKSSDIHFKTLDSNQSVETIEVEIILPR		binding result (crystal structure): binds
TLNLPYMEEMRKEIIAVIQKYTKSSDIHFKTLDSNQSVETIEVEIILPR (domain or fragment, Helicobacter pylori, UniProt O25099 29-77, looked up) [HpMinEΔN (residues 29-77 of HpMinE)]	3	
EcMinEΔN (residues 32-88 of EcMinE) (domain or fragment, E. coli, UniProt P0A734 32-88, looked up) SDAEPHYLPQLRKDILEVICKYVQIDPEMVTVQLEQKDGDISILELNVTLPEAEELK	4	
